Key:
[1] = target: Grb2 SH2 (UniProt P62993); assay: SH2 binding enrichment of the phosphorylated peptide, bacterial display (enrichment ratio); higher = better substrate or ligand; peptides without Tyr show the background
[2] = target: c-Src SH2; assay: as above
[3] = target: SHP2-C SH2; assay: as above
[4] = target: FGFR1 (UniProt P11362); assay: phosphorylation enrichment, bacterial display (enrichment ratio); higher = better substrate or ligand; peptides without Tyr show the background
[5] = tested on: Fer (mouse); assay: as above
[6] = target: EPHB1 (UniProt P54762); assay: as above
EPHB1, sequence (P54762 whole entry, looked up): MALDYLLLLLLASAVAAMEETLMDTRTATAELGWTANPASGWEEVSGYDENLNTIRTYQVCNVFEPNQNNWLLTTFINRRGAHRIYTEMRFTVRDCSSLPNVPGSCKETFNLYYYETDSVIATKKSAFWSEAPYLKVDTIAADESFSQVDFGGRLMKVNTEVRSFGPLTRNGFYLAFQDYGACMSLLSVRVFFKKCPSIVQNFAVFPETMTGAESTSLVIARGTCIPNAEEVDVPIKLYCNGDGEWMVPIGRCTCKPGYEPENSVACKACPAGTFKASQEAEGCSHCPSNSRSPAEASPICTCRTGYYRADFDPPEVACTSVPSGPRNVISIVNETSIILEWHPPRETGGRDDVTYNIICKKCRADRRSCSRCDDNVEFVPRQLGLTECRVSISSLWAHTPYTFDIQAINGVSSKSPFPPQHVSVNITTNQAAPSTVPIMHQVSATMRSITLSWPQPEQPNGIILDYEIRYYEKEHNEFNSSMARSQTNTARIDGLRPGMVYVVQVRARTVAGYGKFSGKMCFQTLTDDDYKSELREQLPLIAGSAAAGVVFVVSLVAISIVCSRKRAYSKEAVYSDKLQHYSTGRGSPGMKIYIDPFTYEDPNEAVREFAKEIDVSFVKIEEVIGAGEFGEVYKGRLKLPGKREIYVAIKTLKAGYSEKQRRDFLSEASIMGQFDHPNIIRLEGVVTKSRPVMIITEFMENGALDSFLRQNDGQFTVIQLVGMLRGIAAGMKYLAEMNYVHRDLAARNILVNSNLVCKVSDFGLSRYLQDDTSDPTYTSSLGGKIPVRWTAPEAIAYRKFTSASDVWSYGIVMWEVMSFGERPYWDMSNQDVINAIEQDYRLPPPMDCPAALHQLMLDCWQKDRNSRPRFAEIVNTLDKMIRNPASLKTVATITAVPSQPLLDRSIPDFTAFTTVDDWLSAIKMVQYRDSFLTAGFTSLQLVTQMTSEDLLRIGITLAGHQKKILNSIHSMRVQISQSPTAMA

[7] = target: FGFR3 (UniProt P22607); assay: as above
FGFR3, sequence (P22607 whole entry, looked up): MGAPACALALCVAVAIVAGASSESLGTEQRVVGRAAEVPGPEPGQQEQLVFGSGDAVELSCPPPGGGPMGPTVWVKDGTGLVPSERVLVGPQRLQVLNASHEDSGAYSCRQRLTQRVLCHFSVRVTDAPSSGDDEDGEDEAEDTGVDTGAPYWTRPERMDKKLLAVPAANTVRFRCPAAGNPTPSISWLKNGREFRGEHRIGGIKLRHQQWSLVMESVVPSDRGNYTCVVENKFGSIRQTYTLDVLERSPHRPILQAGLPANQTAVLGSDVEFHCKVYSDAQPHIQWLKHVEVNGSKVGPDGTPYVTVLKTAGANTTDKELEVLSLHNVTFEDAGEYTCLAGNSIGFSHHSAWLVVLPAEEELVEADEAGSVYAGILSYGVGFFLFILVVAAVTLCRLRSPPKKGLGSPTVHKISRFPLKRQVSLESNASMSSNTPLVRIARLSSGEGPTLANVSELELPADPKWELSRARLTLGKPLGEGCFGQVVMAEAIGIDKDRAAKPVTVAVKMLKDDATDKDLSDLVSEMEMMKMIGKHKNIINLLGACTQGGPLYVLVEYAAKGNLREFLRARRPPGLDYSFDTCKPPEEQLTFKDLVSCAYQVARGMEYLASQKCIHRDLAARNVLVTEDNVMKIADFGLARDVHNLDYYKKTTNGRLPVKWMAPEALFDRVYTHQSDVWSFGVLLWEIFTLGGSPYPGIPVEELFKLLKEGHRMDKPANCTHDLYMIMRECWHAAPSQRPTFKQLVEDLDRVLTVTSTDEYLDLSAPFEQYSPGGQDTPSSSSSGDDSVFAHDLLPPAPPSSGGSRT

[8] = target: Fes (UniProt P07332); assay: as above
[9] = tested on: c-Abl (mouse); assay: as above
[10] = target: EPHB2 (UniProt P29323); assay: as above
[11] = tested on: AncSZ; assay: as above
[12] = target: Fyn (UniProt P06241); assay: as above
[13] = target: Jak2 (UniProt O60674); assay: as above
Jak2, sequence (O60674 whole entry, looked up): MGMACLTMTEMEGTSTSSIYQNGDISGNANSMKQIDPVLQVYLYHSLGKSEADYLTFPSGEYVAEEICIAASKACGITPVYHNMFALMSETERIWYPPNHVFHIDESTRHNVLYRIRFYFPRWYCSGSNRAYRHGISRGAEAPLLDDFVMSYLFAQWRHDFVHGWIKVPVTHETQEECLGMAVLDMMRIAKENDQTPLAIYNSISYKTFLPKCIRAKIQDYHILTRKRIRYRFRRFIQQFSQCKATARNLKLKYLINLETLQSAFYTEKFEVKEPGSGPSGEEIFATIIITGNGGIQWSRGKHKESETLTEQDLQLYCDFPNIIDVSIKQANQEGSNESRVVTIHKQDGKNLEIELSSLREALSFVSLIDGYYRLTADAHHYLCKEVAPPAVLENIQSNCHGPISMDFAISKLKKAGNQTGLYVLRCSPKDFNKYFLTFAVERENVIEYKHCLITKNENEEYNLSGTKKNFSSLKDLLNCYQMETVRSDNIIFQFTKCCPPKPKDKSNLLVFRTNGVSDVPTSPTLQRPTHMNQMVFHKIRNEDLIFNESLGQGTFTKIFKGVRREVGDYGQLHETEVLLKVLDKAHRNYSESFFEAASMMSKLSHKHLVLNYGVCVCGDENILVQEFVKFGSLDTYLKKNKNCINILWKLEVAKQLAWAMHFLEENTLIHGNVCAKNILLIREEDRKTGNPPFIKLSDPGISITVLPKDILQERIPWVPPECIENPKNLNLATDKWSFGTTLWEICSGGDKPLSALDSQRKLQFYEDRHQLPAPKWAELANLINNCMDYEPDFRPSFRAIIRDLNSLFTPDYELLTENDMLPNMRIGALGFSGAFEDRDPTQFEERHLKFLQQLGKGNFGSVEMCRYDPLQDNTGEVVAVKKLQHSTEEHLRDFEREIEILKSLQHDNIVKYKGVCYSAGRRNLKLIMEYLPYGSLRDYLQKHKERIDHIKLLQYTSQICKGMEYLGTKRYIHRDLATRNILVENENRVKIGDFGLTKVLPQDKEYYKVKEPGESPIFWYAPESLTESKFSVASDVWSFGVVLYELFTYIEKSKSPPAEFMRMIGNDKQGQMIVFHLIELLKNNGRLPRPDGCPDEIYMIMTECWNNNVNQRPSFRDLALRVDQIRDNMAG

[14] = target: Hck (UniProt P08631); assay: as above
[15] = target: MERTK (UniProt Q12866); assay: as above
MERTK, sequence (Q12866 whole entry, looked up): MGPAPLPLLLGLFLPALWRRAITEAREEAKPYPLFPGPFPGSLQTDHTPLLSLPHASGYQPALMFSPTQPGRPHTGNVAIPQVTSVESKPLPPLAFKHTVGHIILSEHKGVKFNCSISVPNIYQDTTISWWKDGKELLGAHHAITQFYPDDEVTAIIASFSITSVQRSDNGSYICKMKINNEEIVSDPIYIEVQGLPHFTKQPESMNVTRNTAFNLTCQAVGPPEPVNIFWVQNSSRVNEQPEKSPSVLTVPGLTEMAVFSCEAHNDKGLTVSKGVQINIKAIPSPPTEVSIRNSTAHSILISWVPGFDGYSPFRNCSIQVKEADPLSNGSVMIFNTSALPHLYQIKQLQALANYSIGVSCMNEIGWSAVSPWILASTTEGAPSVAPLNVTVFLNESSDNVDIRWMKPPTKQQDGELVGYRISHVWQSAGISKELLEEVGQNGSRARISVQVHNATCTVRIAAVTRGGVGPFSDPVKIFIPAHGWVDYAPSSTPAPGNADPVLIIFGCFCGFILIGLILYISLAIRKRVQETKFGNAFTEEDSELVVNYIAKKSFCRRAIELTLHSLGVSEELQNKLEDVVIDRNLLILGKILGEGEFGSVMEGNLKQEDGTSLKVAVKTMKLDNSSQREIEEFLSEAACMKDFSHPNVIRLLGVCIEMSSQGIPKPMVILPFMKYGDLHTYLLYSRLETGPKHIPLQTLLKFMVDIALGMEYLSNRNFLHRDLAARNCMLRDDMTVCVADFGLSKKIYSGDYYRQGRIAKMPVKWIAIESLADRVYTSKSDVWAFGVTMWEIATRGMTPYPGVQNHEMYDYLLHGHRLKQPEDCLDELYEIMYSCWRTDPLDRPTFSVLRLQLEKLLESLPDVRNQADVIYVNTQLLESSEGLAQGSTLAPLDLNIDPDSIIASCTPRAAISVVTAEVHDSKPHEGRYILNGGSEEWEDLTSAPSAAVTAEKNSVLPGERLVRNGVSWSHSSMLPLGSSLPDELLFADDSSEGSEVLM

[16] = tested on: c-Src; assay: as above
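Wherever SH2 binding enrichment of the phosphorylated peptide, bacterial display is given: peptide library displayed on the E. coli surface as eCPX fusions, selected cells deep-sequenced, score is each peptide's frequency after selection divided by its frequency in the input.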
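Wherever phosphorylation enrichment, bacterial display is given: 11-residue human phosphosite peptides and single-mutation variants displayed on the E. coli surface, counted by deep sequencing, each peptide's frequency after selection divided by its frequency in the unselected input library; frequency after pTyr selection over input frequency; kinase dosed for 20-30% of maximal phosphorylation in three min.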

Grb2 SH2, sequence (P62993 whole entry, looked up): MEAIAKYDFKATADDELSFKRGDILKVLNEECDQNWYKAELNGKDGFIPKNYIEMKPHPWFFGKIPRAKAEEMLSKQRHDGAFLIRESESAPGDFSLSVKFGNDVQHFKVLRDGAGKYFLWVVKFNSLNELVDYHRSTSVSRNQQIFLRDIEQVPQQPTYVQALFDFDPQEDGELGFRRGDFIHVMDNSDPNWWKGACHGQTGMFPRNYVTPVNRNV
FGFR1, sequence (P11362 whole entry, looked up): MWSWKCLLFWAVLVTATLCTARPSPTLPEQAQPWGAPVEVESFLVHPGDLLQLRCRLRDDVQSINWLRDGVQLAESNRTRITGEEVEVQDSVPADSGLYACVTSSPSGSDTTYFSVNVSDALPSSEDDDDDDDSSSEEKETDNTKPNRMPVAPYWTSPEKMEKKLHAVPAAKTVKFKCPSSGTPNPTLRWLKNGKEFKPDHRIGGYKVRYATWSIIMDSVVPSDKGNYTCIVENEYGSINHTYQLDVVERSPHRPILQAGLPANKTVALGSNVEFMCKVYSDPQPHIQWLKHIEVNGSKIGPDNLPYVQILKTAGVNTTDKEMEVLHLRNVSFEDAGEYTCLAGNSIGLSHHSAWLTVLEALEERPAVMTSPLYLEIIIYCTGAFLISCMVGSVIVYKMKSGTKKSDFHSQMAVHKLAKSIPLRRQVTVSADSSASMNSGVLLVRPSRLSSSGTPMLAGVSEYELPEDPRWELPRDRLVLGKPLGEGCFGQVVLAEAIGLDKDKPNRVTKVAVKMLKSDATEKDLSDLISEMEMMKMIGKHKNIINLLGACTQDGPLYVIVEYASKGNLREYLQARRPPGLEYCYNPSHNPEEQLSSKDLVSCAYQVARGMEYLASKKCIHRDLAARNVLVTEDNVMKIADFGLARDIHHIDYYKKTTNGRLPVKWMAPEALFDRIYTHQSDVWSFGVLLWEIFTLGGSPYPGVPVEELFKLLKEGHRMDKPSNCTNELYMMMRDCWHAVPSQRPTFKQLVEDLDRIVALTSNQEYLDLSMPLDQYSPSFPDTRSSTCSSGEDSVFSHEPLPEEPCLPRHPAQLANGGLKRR

Sequence | SH2 binding enrichment [1] | SH2 binding enrichment [2] | SH2 binding enrichment [3] | phosphorylation enrichment [4] | phosphorylation enrichment [5] | phosphorylation enrichment [6] | phosphorylation enrichment [7] | phosphorylation enrichment [8] | phosphorylation enrichment [9] | phosphorylation enrichment [10] | phosphorylation enrichment [11] | phosphorylation enrichment [12] | phosphorylation enrichment [13] | phosphorylation enrichment [14] | phosphorylation enrichment [15] | phosphorylation enrichment [16]
IFRAAYFGVFD [SLC25A4_Y191_YF] | 0.832 | 0.546 | 0.588 | 0.499 | 0.523 | 0.751 | 0.717 | 1.25 | 0.761 | 0.594 | 0.985 | 0.497 | 0.891 | 0.457 | 0.447 | 0.438
QGLRLYRTHLA [BTK_Y617_P619T] | 1.34 | 1.08 | 1.31 | 0.306 | 0.42 | 0.359 | 0.365 | 0.478 | 0.448 | 0.486 | 0.509 | 0.339 | 0.577 | 0.317 | 0.333 | 0.312
SPFMLYQFLKQ [RPAP3_Y567_D564Y_YF] | 1.41 | 1.07 | 1.67 | 1.14 | 3.37 | 4.55 | 0.99 | 1.34 | 0.938 | 2.73 | 1.15 | 0.621 | 1.07 | 4.2 | 4.11 | 0.867
SENAFYLSPDI [COL6A3_Y2827] | 0.739 | 0.475 | 0.698 | 0.762 | 0.724 | 0.793 | 0.841 | 1.21 | 1.49 | 0.687 | 1.69 | 0.607 | 1.68 | 0.687 | 0.754 | 0.607
TSKLNYLDPRI [TOP1_Y723] | 0.813 | 0.554 | 1.09 | 0.919 | 0.241 | 4.39 | 0.585 | 0.599 | 0.407 | 1.7 | 0.534 | 0.371 | 0.506 | 0.3 | 0.359 | 0.405
AKGMKYLASKK [MET_Y1194] | 0.975 | 0.553 | 0.557 | 0.341 | 0.379 | 0.244 | 0.311 | 0.536 | 0.445 | 0.324 | 0.482 | 0.354 | 0.489 | 0.394 | 0.335 | 0.406
HDKEFYSVHNK [MET_Y1235_Y1230H_YF] | 0.734 | 0.395 | 0.466 | 0.804 | 0.629 | 0.455 | 0.549 | 0.842 | 0.309 | 0.643 | 1.14 | 0.646 | 0.513 | 1.03 | 0.467 | 0.429
AHLLQYNHRVK [LGALS3_Y221] | 1.03 | 0.874 | 1.13 | 0.397 | 0.371 | 0.461 | 0.442 | 0.604 | 0.668 | 0.493 | 0.592 | 0.288 | 0.562 | 0.366 | 0.42 | 0.459
EYLQKYKGFKI [SYNE1_Y6953] | 0.854 | 0.551 | 0.624 | 0.256 | 0.407 | 0.427 | 0.377 | 0.868 | 0.569 | 0.332 | 0.733 | 0.275 | 0.707 | 0.345 | 0.438 | 0.323
TMEDSYRKQVV [KRAS_Y40_I36M] | 0.728 | 0.356 | 0.48 | 0.366 | 0.403 | 0.556 | 0.595 | 0.774 | 0.594 | 0.367 | 0.69 | 0.273 | 0.663 | 0.425 | 0.411 | 0.38
DFKIIYIAPMR [SNRNP200_Y540] | 1.46 | 0.759 | 1.32 | 0.449 | 0.447 | 0.586 | 0.616 | 1.22 | 4.59 | 0.486 | 1.21 | 0.522 | 1.18 | 0.556 | 0.437 | 0.572
KLLPEYPGVLS [DHFR2_Y163] | 0.952 | 0.574 | 0.809 | 0.379 | 0.493 | 0.349 | 0.564 | 0.657 | 0.497 | 0.399 | 0.685 | 0.46 | 0.598 | 0.491 | 0.385 | 0.458
LITTPYIGFLG [KCNQ1_Y267_L266P] | 0.781 | 0.492 | 2.18 | 0.616 | 0.667 | 0.449 | 0.641 | 1.35 | 0.528 | 0.5 | 0.834 | 0.782 | 0.983 | 0.473 | 0.554 | 1.35
RPQDGYRIVQH [PTPRT_Y1329] | 0.915 | 0.508 | 0.476 | 0.557 | 0.591 | 0.406 | 0.625 | 0.708 | 0.74 | 0.565 | 0.797 | 0.554 | 0.534 | 0.586 | 0.493 | 0.649
IVAEYYDNLPH [DEGS1_Y284_A280V] | 0.934 | 1.5 | 0.574 | 9.37 | 1.37 | 1.09 | 6.4 | 1.38 | 1.25 | 0.924 | 1.9 | 0.682 | 1.53 | 3.07 | 1.51 | 0.958
RPSRQYATLDV [SCAMP3_Y35] | 0.899 | 9.6 | 6.79 | 0.37 | 0.313 | 0.331 | 0.336 | 0.461 | 0.381 | 0.33 | 0.373 | 0.315 | 0.42 | 0.376 | 0.379 | 0.319
FPILNYKDIRK [CFAP221_Y798_M795I] | 0.76 | 0.447 | 0.696 | 0.431 | 0.449 | 0.478 | 0.464 | 0.666 | 0.486 | 0.487 | 0.546 | 0.368 | 0.745 | 0.391 | 0.453 | 0.49

— the supplement of paper PMC10065799, “High-throughput profiling of sequence recognition by tyrosine kinases and SH2 domains using bacterial peptide display” (eLife, 2023)
